This sample holds only a part of the variants without activity.
B1: TPR 5TU (parent)
chain: GGAUCUUCUCGAUCUAACAAAAAAGACAAAUCUGCCACAAAGCUUGAGAGCAUCUUCGGAUGCAGAGGCGGCAGCCUUCGGUGGCGCGAUAGCGCCAACGUUCUCAACUAUGACACGCAAAACGCGUGCUCCGUUGAAUGGAGUUUAUCAUG

Variants of: B1
Assay: polymerase ribozyme fitness, log enrichment relative to wild type (log ratio); higher = more active; in vitro selection for triplet polymerase activity
In short: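 For each subunit of a heterodimeric triplet polymerase ribozyme, a mutant library was built by PCR and transcribed, then taken through a single in vitro selection round in triplicate. Selection involved annealing to a biotinylated primer, the partner subunit and triplets, incubation frozen at −7 °C, gel excision of extended constructs, capture on streptavidin beads and RT-PCR. Genotypes were retained after Illumina sequencing of inputs and outputs only with ≥10 input reads and ≥1 read in each output. Fitness is defined as the logarithm of a genotype's enrichment relative to wild-type enrichment, using inverse-variance-weighted averages across replicates, with the logarithm taken to base 2.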

C5A A16U A24U C35A U56A C85G U109G U144C and C69U U78A A97U G143C cannot be ordered by “polymerase ribozyme fitness (log ratio)” value: no more than -4.2 for the first, no more than -4.2 for the second.

Going from U4C A17U G50U G58A G92C C99U G117U to C87A G92U, the “polymerase ribozyme fitness (log ratio)” value rises from no more than -4.2 to 0.159.

U4A U6A C36U C57G G68U C79G A91C and A29G A60C G80A A121U G141U cannot be ordered by “polymerase ribozyme fitness (log ratio)” value: no more than -4.2 for the first, no more than -4.2 for the second.

Compared with U82G G86A C96A, U6A C8G A60C G62A C85A C103A is lower in “polymerase ribozyme fitness (log ratio)” value: -2.04 for the first, no more than -4.2 for the second.

Compared with C38G C54A G74U A106U G140U, A12U U56A is higher in “polymerase ribozyme fitness (log ratio)” value: no more than -4.2 for the first, -0.683 for the second.

First: A64U A110G
Second: U109G C118G U144A
The “polymerase ribozyme fitness (log ratio)” value of the first is lower: no more than -4.2 for the first, -3.88 for the second.

Compared with G84U G141A, C14U A24C U53A G67U C108U A150G is lower in “polymerase ribozyme fitness (log ratio)” value: -1.4 for the first, no more than -4.2 for the second.

Compared with G25U C85U C116G A120U G141C, A22G C93A is higher in “polymerase ribozyme fitness (log ratio)” value: no more than -4.2 for the first, -1.55 for the second.

G68C A89G A120G A147U U148G and U7G A41U C43U U82G G92U U146A cannot be ordered by “polymerase ribozyme fitness (log ratio)” value: no more than -4.2 for the first, no more than -4.2 for the second.

First: A12U C87A C103G U135G
Second: A60G G81A A97U C99U
The “polymerase ribozyme fitness (log ratio)” value of the first is lower: no more than -4.2 for the first, -1.35 for the second.

Compared with A49U A52C, U7A A22G C72A A122U C131A is lower in “polymerase ribozyme fitness (log ratio)” value: -0.692 for the first, no more than -4.2 for the second.

Compared with U31C A60U A110G C118G U144C, A21C G42U C69G C85U A98U A106G A120U is lower in “polymerase ribozyme fitness (log ratio)” value: -3.59 for the first, no more than -4.2 for the second.

Going from A3U C96U A97G to A22G A24U U55A C75G C76A C95G G124U G136U, the “polymerase ribozyme fitness (log ratio)” value falls from 0.661 to no more than -4.2.

Compared with A29G C38U U53G C85G A98U C108A G128U, C8G C35U A40U C95U C149A is lower in “polymerase ribozyme fitness (log ratio)” value: -3.97 for the first, no more than -4.2 for the second.

First: C14A C27G C32G U77C G84A
Second: C103A A142G
The “polymerase ribozyme fitness (log ratio)” value of the first is lower: no more than -4.2 for the first, -2.71 for the second.

Going from A20G A22U G59A C93G A98G A137G U139G to A21U U135A, the “polymerase ribozyme fitness (log ratio)” value rises from no more than -4.2 to -1.24.

U15A A21G C36G A60C C96A A147C and A20U A29C A30G C54A G67C G80U C93U G94A A97C C99U cannot be ordered by “polymerase ribozyme fitness (log ratio)” value: no more than -4.2 for the first, no more than -4.2 for the second.

Compared with U56A A89U C96G, C10U A19G U33A C79U C93U is lower in “polymerase ribozyme fitness (log ratio)” value: -1 for the first, no more than -4.2 for the second.

Going from U13A C14G A19U U53A U55A G86C U135A to A21U C93U U144C, the “polymerase ribozyme fitness (log ratio)” value rises from no more than -4.2 to -0.648.

U78G A89U A106G C118U and A24C G34C G50C U134A cannot be ordered by “polymerase ribozyme fitness (log ratio)” value: no more than -4.2 for the first, no more than -4.2 for the second.

Going from C96U C105U to C54U A60U C87U G94U U101G U109C C116U C118U G152C, the “polymerase ribozyme fitness (log ratio)” value falls from 0.67 to no more than -4.2.

First: A30C G92C G126A
Second: G81A G140C
The “polymerase ribozyme fitness (log ratio)” value of the first is lower: no more than -4.2 for the first, -2.67 for the second.

A26U A91G A115G A150C and C10U C32A C51G A106G A142C U148A cannot be ordered by “polymerase ribozyme fitness (log ratio)” value: no more than -4.2 for the first, no more than -4.2 for the second.

First: G81C C95A U134A U144C
Second: U56A C57U U61A C75A G88U A120U U139A G143C
The “polymerase ribozyme fitness (log ratio)” value of the first is higher: -2.86 for the first, no more than -4.2 for the second.

Going from C27U G86A to C14G A23G G88A, the “polymerase ribozyme fitness (log ratio)” value falls from -2.94 to no more than -4.2.

First: A52C A122G
Second: G48C C125G
The “polymerase ribozyme fitness (log ratio)” value of the first is lower: -1.4 for the first, -0.571 for the second.

Going from C14U A17U A28G U44A A73G C95A G100U A106G A115G to C35A G83C, the “polymerase ribozyme fitness (log ratio)” value rises from no more than -4.2 to -3.93.

A60U C76U G86A G141A and U55A G62C G81A are within 0.2 log units of each other in “polymerase ribozyme fitness (log ratio)” value: -3.96 for the first, -3.98 for the second.

First: C149A
Second: C27U C85A
The “polymerase ribozyme fitness (log ratio)” value of the first is lower: -3.33 for the first, -2.04 for the second.

First: G117U G143U
Second: A12G A23U C85G A150G
The “polymerase ribozyme fitness (log ratio)” value of the first is higher: -2.57 for the first, no more than -4.2 for the second.

Going from G50U U146C to C54G G58C A122G G124U, the “polymerase ribozyme fitness (log ratio)” value falls from 0.0837 to -2.2.

First: G50A U90C C96G A115U
Second: U82G C96G C118U G141A A147U
The “polymerase ribozyme fitness (log ratio)” value of the first is lower: no more than -4.2 for the first, -1.93 for the second.

Compared with C95U A98C, U33G G86U is lower in “polymerase ribozyme fitness (log ratio)” value: -1 for the first, -3.95 for the second.

First: C18G C54U U78C
Second: C85A C116A
The “polymerase ribozyme fitness (log ratio)” value of the first is lower: -2.12 for the first, 0.744 for the second.

Going from A20U G83U U90G C99A A107U U148A to U6C A47G G59C G92U C99A C118G, the “polymerase ribozyme fitness (log ratio)” value rises from no more than -4.2 to -3.32.

Going from G11A A21U C85U to G59C A106U, the “polymerase ribozyme fitness (log ratio)” value rises from -1.32 to -0.917.

First: A41C C69A
Second: G50C C118U
The “polymerase ribozyme fitness (log ratio)” value of the first is higher: -2.53 for the first, -3.01 for the second.

Going from G71C U82C to A19C C79U A98U, the “polymerase ribozyme fitness (log ratio)” value rises from -2.48 to -1.81.

First: G58C C85U A89G G136A
Second: G11C G83A G141U
The “polymerase ribozyme fitness (log ratio)” value of the first is lower: -3.96 for the first, -0.379 for the second.

Going from G59A A66G to G42A C54U G117A, the “polymerase ribozyme fitness (log ratio)” value falls from -3.24 to no more than -4.2.

First: U6G C87U
Second: A39C U56G A73G
The “polymerase ribozyme fitness (log ratio)” value of the first is higher: -0.579 for the first, -3.36 for the second.

Compared with G25A U61A, G68C G84A C85A is lower in “polymerase ribozyme fitness (log ratio)” value: -3.19 for the first, no more than -4.2 for the second.

Reference: the RNAGym collection of RNA variant scans (doi:10.1073/pnas.2313332121)
